As usually defined, the Kd is the concentration at which binding is half-saturated. A low value points to higher affinity.

The assay addresses Rabbit skeletal muscle actin (rabbit, UniProt P68135 1-377). The experiment in a line: co-sedimentation.

B1: Arp2/3 complex (complex)
chain 1: not shown
chain 2: not shown
chain 3: MSANIENFKDSAKLTCITCHAFNRDRTLIAICPNNNEVHIYQKQGAEWVKNAVLVEHDQAVTGIDWGHKENRIVTCSQDRNAYVWSLGADGKWKPTLVLLRITRAATHVKWSPNEEKFAVATGAKCVSVCYFEEANDWWVSKHIKLHKSTVLNVAWHPNNIFLATAASDFKARIFSAFIKGVDKRPENTPFGDKLPFGEMLAEYSCGGWVHGVSWSPSGEWLSFVSHDSAISFVNISTGREAVPQRLSLSGLPYRVLAFLNPTDIIAAGYDCNPALFRLSGQTWAFVKNVDESSAAARAAPGAAQSAMNMWQKKADLGTTSNETQLETKHQNAISGLTALAPNQFSTTAVDGKLIIWTVRA
chain 4: MILLETGSRILEEVIRQRVQSDKREAVDITLADFDGVQYHIATNATQRNLVTVSISWPCISQMKQFGTDAKVQSFYGPLVTSAETGYDYTLQFDLDNLADKDSLPGKIALFKRTVVAAPLEAVFDGKPGLPPVITINYRTNEAVYLKREGNNVAVIFSINFKDKDDIVIGKVFLQELEAARKTINNAPAVTFSQRERPLELKSVQNVYEGEDQGFVTFLLFGPHTHESRRGKTIDTIHLFRNYLHYHIKCSKAFLHTRMRLRVEELLQVLNRAKIKNANKEMKTMSGRTFKRA
chain 5: MCGMGVLPIKTKYKGPAPRYTGPADQPDIIDEAISFFKANVLFRNYEVKGPADRVLIYLTLYISQAINQMVNQSKGGAQKNLFNLAIQNFAVPGDKNFALAGFVSNPANRAEADQIRQYLTQLRQETGDRLIEAVYAFGENEPSKWWMCFSKRKFLNKNL
chain 6: METPEKPERSDAEFQQSLDARQREVNNALNTGNPGRALSAALQDPPLGCKNQQIRAVVNVLTSVKDADMQKNIDALSPTDLDTLMKYIYRGLEDGENSTSLLKWHEAVTKKGGLGCIVRALAERKAL
With B1, the Kd amounted to 2300 ± 300 nM and the “stoichiometry N” value is 1 actin monomer per Arp2/3-binding site.

Values taken from paper PMC2134809 (The Journal of Cell Biology, 1997).
